One variant from IntAct's records for PubMed 16488887 can be followed below.

B1: Prospero homeobox protein 1 (Homo sapiens), Q92786 (parent)
chain: MPDHDSTALLSRQTKRRRVDIGVKRTVGTASAFFAKARATFFSAMNPQGSEQDVEYSVVQHADGEKSNVLRKLLKRANSYEDAMMPFPGATIISQLLKNNMNKNGGTEPSFQASGLSSTGSEVHQEDICSNSSRDSPPECLSPFGRPTMSQFDMDRLCDEHLRAKRARVENIIRGMSHSPSVALRGNENEREMAPQSVSPRESYRENKRKQKLPQQQQQSFQQLVSARKEQKREERRQLKQQLEDMQKQLRQLQEKFYQIYDSTDSENDEDGNLSEDSMRSEILDARAQDSVGRSDNEMCELDPGQFIDRARALIREQEMAENKPKREGNNKERDHGPNSLQPEGKHLAETLKQELNTAMSQVVDTVVKVFSAKPSRQVPQVFPPLQIPQARFAVNGENHNFHTANQRLQCFGDVIIPNPLDTFGNVQMASSTDQTEALPLVVRKNSSDQSASGPAAGGHHQPLHQSPLSATTGFTTSTFRHPFPLPLMAYPFQSPLGAPSGSFSGKDRASPESLDLTRDTTSLRTKMSSHHLSHHPCSPAHPPSTAEGLSLSLIKSECGDLQDMSEISPYSGSAMQEGLSPNHLKKAKLMFFYTRYPSSNMLKTYFSDVKFNRCITSQLIKWFSNFREFYYIQMEKYARQAINDGVTSTEELSITRDCELYRALNMHYNKANDFEVPERFLEVAQITLREFFNAIIAGKDVDPSWKKAIYKVICKLDSEVPEIFKSPNCLQELLHE
partner: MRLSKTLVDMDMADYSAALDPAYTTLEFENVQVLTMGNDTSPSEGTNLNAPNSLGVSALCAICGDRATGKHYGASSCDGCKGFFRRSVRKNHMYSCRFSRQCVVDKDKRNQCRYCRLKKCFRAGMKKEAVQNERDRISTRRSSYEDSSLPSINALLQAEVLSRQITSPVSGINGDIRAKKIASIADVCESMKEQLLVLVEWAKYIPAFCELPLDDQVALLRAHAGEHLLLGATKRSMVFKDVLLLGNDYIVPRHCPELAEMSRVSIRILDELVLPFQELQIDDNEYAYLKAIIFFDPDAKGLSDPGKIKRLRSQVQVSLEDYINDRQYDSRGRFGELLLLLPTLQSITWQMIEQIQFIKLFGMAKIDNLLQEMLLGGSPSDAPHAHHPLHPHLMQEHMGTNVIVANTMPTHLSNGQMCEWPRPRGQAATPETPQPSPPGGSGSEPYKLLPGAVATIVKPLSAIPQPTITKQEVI

The variants in this assay derive from B1. Conditions: with hnf4a_human HNF4A.
With L70A;L73A, the “effect of a mutation on the interaction” value is “disrupting interaction”.
